Assay results taken from patent US20260116921A1, “PEPTIDE INHIBITORS OF INTERLEUKIN-23 RECEPTOR AND THEIR USE TO TREAT INFLAMMATORY DISEASES” (priority 2018, published 2026).
Numbered stars: 1 amine (or outer) side, 2 acyl side, 3 side chain; on linkers, the order of the positions; unused ones are H or OH. Bridge positions count the residues as written; N and C are the ends. Square brackets hold non-standard residues; d marks the D form. Trp(7-Et) = 7-ethyl-tryptophan, CCc1cccc2c(C[C@H](N[*:1])C(=O)[*:2])c[nH]c12; Trp(7-OMe) = COc1cccc2c(C[C@H](N)C(=O)O)c[nH]c12; His(π-Bom) = N[C@@H](Cc1cncn1COCc1ccccc1)C(=O)O; Trp(7-Me) = Cc1cccc2c(C[C@H](N)C(=O)O)c[nH]c12; 2Nal = N[C@@H](Cc1ccc2ccccc2c1)C(=O)O; AEF = NCCOc1ccc(C[C@H](N)C(=O)O)cc1; Cit = NC(=O)NCCC[C@H](N)C(=O)O; Pen = CC(C)(S)[C@H](N)C(=O)O; αMeK = C[C@](N)(CCCCN)C(=O)O; NMeA = CN[C@@H](C)C(=O)O; Aib = CC(C)(N)C(=O)O; βAla = NCCC(=O)O

T1: IL-23R (human, UniProt Q5VWK5 24-629)
T1 sequence (looked up): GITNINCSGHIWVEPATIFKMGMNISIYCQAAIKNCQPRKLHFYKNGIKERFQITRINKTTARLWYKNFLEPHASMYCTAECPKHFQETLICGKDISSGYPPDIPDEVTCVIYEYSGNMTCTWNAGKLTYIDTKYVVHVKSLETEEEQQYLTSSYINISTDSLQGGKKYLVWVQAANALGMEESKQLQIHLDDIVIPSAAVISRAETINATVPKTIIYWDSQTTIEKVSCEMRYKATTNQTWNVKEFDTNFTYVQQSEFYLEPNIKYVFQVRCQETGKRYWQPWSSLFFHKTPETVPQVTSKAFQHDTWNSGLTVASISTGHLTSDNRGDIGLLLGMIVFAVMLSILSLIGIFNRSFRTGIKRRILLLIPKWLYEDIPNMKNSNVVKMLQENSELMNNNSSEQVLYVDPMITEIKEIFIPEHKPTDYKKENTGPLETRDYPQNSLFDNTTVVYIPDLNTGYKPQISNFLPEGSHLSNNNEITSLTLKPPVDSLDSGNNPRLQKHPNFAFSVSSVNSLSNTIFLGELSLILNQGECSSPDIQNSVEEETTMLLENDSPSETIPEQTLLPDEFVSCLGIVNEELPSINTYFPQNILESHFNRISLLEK

B1: SEQ ID NO: 340 (peptide)
peptide: Ac-[Pen]NT[Trp(7-Me)][Cit][Pen][AEF][2Nal][αMeK]K(Ac)N[Aib][βAla]-NH2
modifications: disulfide 1-6
SMILES: CC(=O)NCCCC[C@H](NC(=O)[C@](C)(CCCCN)NC(=O)[C@H](Cc1ccc2ccccc2c1)NC(=O)[C@H](Cc1ccc(OCCN)cc1)NC(=O)[C@H]1NC(=O)[C@H](CCCNC(N)=O)NC(=O)[C@H](Cc2c[nH]c3c(C)cccc23)NC(=O)[C@H]([C@@H](C)O)NC(=O)[C@H](CC(N)=O)NC(=O)[C@@H](NC(C)=O)C(C)(C)SSC1(C)C)C(=O)N[C@@H](CC(N)=O)C(=O)NC(C)(C)C(=O)NCCC(N)=O
B2: SEQ ID NO: 345 (peptide)
peptide: Ac-[Pen]NT[Trp(7-Me)][Cit][Pen][AEF][2Nal][αMeK]K(Ac)N[Aib][dR]-NH2
modifications: disulfide 1-6
SMILES: CC(=O)NCCCC[C@H](NC(=O)[C@](C)(CCCCN)NC(=O)[C@H](Cc1ccc2ccccc2c1)NC(=O)[C@H](Cc1ccc(OCCN)cc1)NC(=O)[C@H]1NC(=O)[C@H](CCCNC(N)=O)NC(=O)[C@H](Cc2c[nH]c3c(C)cccc23)NC(=O)[C@H]([C@@H](C)O)NC(=O)[C@H](CC(N)=O)NC(=O)[C@@H](NC(C)=O)C(C)(C)SSC1(C)C)C(=O)N[C@@H](CC(N)=O)C(=O)NC(C)(C)C(=O)N[C@H](CCCNC(=N)N)C(N)=O
B3: SEQ ID NO: 319 (peptide)
peptide: XNTXXXXXXKNL
modifications: Ac-[Pen]-N-T-[W(7-Me)]-[Lys(trifluoropropionic)]-[Pen]-Phe[4-(2-aminoethoxy)]-[2-Nal]-[a-MeLys]-[Lys(Ac)]-N-[(D)Leu]-NH2; Pen-Pen disulfide
B4: SEQ ID NO: 274 (peptide)
peptide: XNTXQXXXXKNX
modifications: Ac-[Pen]-N-T-[W(7-Me)]-Q-[Pen]-Phe[4-(2-aminoethoxy)]-[2-Nal]-[Achc]-[Lys(Ac)]-N-[bA]-NH2; Pen-Pen disulfide
B5: SEQ ID NO: 342 (peptide)
peptide: Ac-[Pen]NT[Trp(7-Me)][Cit][Pen][AEF][2Nal][αMeK]K(Ac)N[Aib]A-NH2
modifications: disulfide 1-6
SMILES: CC(=O)NCCCC[C@H](NC(=O)[C@](C)(CCCCN)NC(=O)[C@H](Cc1ccc2ccccc2c1)NC(=O)[C@H](Cc1ccc(OCCN)cc1)NC(=O)[C@H]1NC(=O)[C@H](CCCNC(N)=O)NC(=O)[C@H](Cc2c[nH]c3c(C)cccc23)NC(=O)[C@H]([C@@H](C)O)NC(=O)[C@H](CC(N)=O)NC(=O)[C@@H](NC(C)=O)C(C)(C)SSC1(C)C)C(=O)N[C@@H](CC(N)=O)C(=O)NC(C)(C)C(=O)N[C@@H](C)C(N)=O
B6: SEQ ID NO: 344 (peptide)
peptide: Ac-[Pen]NT[Trp(7-Me)][Cit][Pen][AEF][2Nal][αMeK]K(Ac)N[Aib][dK]-NH2
modifications: disulfide 1-6
SMILES: CC(=O)NCCCC[C@H](NC(=O)[C@](C)(CCCCN)NC(=O)[C@H](Cc1ccc2ccccc2c1)NC(=O)[C@H](Cc1ccc(OCCN)cc1)NC(=O)[C@H]1NC(=O)[C@H](CCCNC(N)=O)NC(=O)[C@H](Cc2c[nH]c3c(C)cccc23)NC(=O)[C@H]([C@@H](C)O)NC(=O)[C@H](CC(N)=O)NC(=O)[C@@H](NC(C)=O)C(C)(C)SSC1(C)C)C(=O)N[C@@H](CC(N)=O)C(=O)NC(C)(C)C(=O)N[C@H](CCCCN)C(N)=O
B7: SEQ ID NO: 277 (peptide)
peptide: XNTXQXXXXKNX
modifications: Ac-[Pen]-N-T-[W(7-Me)]-Q-[Pen]-Phe[4-(2-aminoethoxy)]-[2-Nal]-[Acbc]-[Lys(Ac)]-N-[bA]-NH2; Pen-Pen disulfide
B8: SEQ ID NO: 265 (peptide)
peptide: Ac-[Pen]NT[Trp(7-Me)][Cit][Pen][AEF][2Nal][αMeK]K(Ac)N[NMeA]-NH2
modifications: disulfide 1-6; not fully specified; printed as Ac-[Pen]-NT-[W(7-Me)]-[Cit]-[Pen]-Phe[4-(2-aminoethoxy)]-[2-Nal]-[a-MeLys]-[Lys(Ac)]-[N-MeAla]-NH2
B9: SEQ ID NO: 341 (peptide)
peptide: Ac-[Pen]NT[Trp(7-Me)][Cit][Pen][AEF][2Nal][αMeK]K(Ac)N[Aib]G-NH2
modifications: disulfide 1-6
SMILES: CC(=O)NCCCC[C@H](NC(=O)[C@](C)(CCCCN)NC(=O)[C@H](Cc1ccc2ccccc2c1)NC(=O)[C@H](Cc1ccc(OCCN)cc1)NC(=O)[C@H]1NC(=O)[C@H](CCCNC(N)=O)NC(=O)[C@H](Cc2c[nH]c3c(C)cccc23)NC(=O)[C@H]([C@@H](C)O)NC(=O)[C@H](CC(N)=O)NC(=O)[C@@H](NC(C)=O)C(C)(C)SSC1(C)C)C(=O)N[C@@H](CC(N)=O)C(=O)NC(C)(C)C(=O)NCC(N)=O
B10: SEQ ID NO: 300 (peptide)
peptide: Ac-[Pen]NT[Trp(7-OMe)][Cit][Pen][AEF][2Nal][αMeK]K(Ac)N[dK]-NH2
modifications: disulfide 1-6
SMILES: COc1cccc2c(C[C@@H]3NC(=O)[C@H]([C@@H](C)O)NC(=O)[C@H](CC(N)=O)NC(=O)[C@@H](NC(C)=O)C(C)(C)SSC(C)(C)[C@@H](C(=O)N[C@@H](Cc4ccc(OCCN)cc4)C(=O)N[C@@H](Cc4ccc5ccccc5c4)C(=O)N[C@@](C)(CCCCN)C(=O)N[C@@H](CCCCNC(C)=O)C(=O)N[C@@H](CC(N)=O)C(=O)N[C@H](CCCCN)C(N)=O)NC(=O)[C@H](CCCNC(N)=O)NC3=O)c[nH]c12
B11: SEQ ID NO: 276 (peptide)
peptide: XNTXQXXXXKNX
modifications: Ac-[Pen]-N-T-[W(7-Me)]-Q-[Pen]-Phe[4-(2-aminoethoxy)]-[2-Nal]-[DiethylGly]-[Lys(Ac)]-N-[bA]-NH2; Pen-Pen disulfide
B12: SEQ ID NO: 249 (peptide)
peptide: XNTXKXXXXKNX
modifications: Ac-[Pen]-NT-[W(7-Me)]-[Lys(Ac)]-[Pen]-Phe[4-(2-aminoethoxy)]-[2-Nal]-[a-MeLys]-[Lys(Ac)]-N-[Cit]-NH2; Pen-Pen disulfide
B13: SEQ ID NO: 320 (peptide)
peptide: XNTXXXXXXKNL
modifications: Ac-[Pen]-N-T-[W(7-Me)]-[Lys(Gly)]-[Pen]-Phe[4-(2-aminoethoxy)]-[2-Nal]-[a-MeLys]-[Lys(Ac)]-N-[(D)Leu]-NH2; Pen-Pen disulfide
B14: SEQ ID NO: 322 (peptide)
peptide: XNTXXXXXXKNL
modifications: Ac-[Pen]-N-T-[W(7-Me)]-[Lys(Aib)]-[Pen]-Phe[4-(2-aminoethoxy)]-[2-Nal]-[a-MeLys]-[Lys(Ac)]-N-[(D)Leu]-NH2; Pen-Pen disulfide

Target: T1, IL-23R
Assay: cell-based or functional assay

Binder	pStat3 HTRF (nM) IC50
Ac-[Pen]NT[Trp(7-Me)]K(Ac)[Pen][His(π-Bom)][2Nal][αMeK]K(Ac)N[dL]-NH2 (disulfide 1-6) [SEQ ID NO: 291]	> 100 nM
Ac-[Pen]NT[Trp(7-Me)][Cit][Pen][AEF][2Nal][αMeK]K(Ac)N[dR]-NH2 (disulfide 1-6 (inferred)) [SEQ ID NO: 256]	< 1 nM
B1	< 1 nM
B2	< 1 nM
B3	< 1 nM
Ac-[Pen]NT[Trp(7-Et)]K(Ac)[Pen][AEF][2Nal][αMeK]K(Ac)N[dL]-NH2 (disulfide 1-6 (inferred)) [SEQ ID NO: 284]	< 1 nM
B4	< 1 nM
B5	< 1 nM
B6	< 1 nM
Ac-[Pen]NT[Trp(2,5,7-tritBu)]Q[Pen][AEF][2Nal][αMeK]K(Ac)N[βAla]-NH2 (disulfide 1-6) [SEQ ID NO: 233]	> 100 nM
B7	< 1 nM
B8	< 1 nM
B9	< 1 nM
B10	> 100 nM
B11	< 1 nM
B12	< 1 nM
B13	< 1 nM
Ac-[Pen]NT[Trp(7-Me)][Cit][Pen][AEF][2Nal][αMeK]K(Ac)N[dT]-NH2 (disulfide 1-6 (inferred)) [SEQ ID NO: 263]	< 1 nM
B14	< 1 nM
Ac-[Pen]NT[Trp(7-Me)][Cit][Pen][AEF][2Nal][αMeK]K(Ac)NS-NH2 (disulfide 1-6 (inferred)) [SEQ ID NO: 260]	< 1 nM
